Patent US9844546B2, “Antibody against human HIF hydroxylase” (OXFORD UNIVERSITY INNOVATION LIMITED, priority 2001, dated 2017)
Entries after “also recorded” stand apart in the source; their conditions may differ.

Target: T1, HIF-1α/pVHL interaction (Homo sapiens, UniProt P40337)
T1 construct: made in house; host or cells: TNT rabbit reticulocyte lysate (Promega), in vitro transcription/translation
Assay: Polypeptide blocking assay of HIF-1α and pVHL.HA IVTT mixture, anti-HA immunoprecipitation
Assay type: binding
Method: Further studies were performed using synthetic polypeptides as inhibitors of the HIF-1α/pVHL interaction (23). […] Results for a series of polypeptides derived from this domain are summarized in FIG. 1B and implicate a similar minimal interaction domain. […] This polypeptide comprises HIF-1α polypeptide residues 556 to 574 and its ability to block binding following exposure to a variety of direct oxidation conditions was assessed.
We synthesized a polypeptide (HIF-1α residues 556-574), containing a trans-4-hydroxy-S-proline residue at position 564 (19:Pro564Hyp), since the trans-4-hydroxylation is the commonest enzymatic proline oxidation (25). A polypeptide blocking assay was carried out using the 19:Pro564Hyp modified polypeptide and, as a control, the unmodified polypeptide without the trans-4-hydroxylation (19:WT). The 19:WT polypeptide was either incubated with cell extract before the binding assay or was untreated. The 19:Pro564Hyp polypeptide was added to a mixture of HIF-1α and pVHL-HA IVTTs at a concentration of 1, 0.25, 0.05 or 0.01 μM and the cell extract treated or untreated 19:WT polypeptide at a concentration of 0.5 μM. Interaction of HIF-1α with pVHL was then assayed by anti-HA immunoprecipitation. […] A pVHL capture assay was then carried out using biotinylated synthetic polypeptides. The same polypeptides, 19:Pro564Hyp and 19:WT were assessed for the ability to capture wild type or mutant (Pro86His) pVHL. […] In both cases capture was specific for wild type, as opposed to mutant, pVHL.
• 1. G. L. Semenza, Genes Dev 14, 1983-91. (2000). • 2. N. V. Iyer, et al., Genes Dev. 12, 149-162 (1997). • 3. E. Maltepe, J. V. Schmidt, D. Baunoch, C. A. Bradfield, M. C. Simon, Nature 386, 403-407 (1997). • 4. G. L. Wang, B.-H. Jiang, E. A. Rue, G. L. Semenza, Proc. Natl. Acad. Sci. USA 92, 5510-5514 (1995). • 5. S. Salceda, J. Caro, J. Biol. Chem. 272, 22642-22647 (1997). • 6. L. E. Huang, J. Gu, M. Schau, H. F. Bunn, Proc. Natl. Acad. Sci. USA 95, 7987-7992 (1998). • 7. M. S. Wiesener, et al., Blood 92, 2260-2268 (1998). • 8. P. H. Maxwell, et al., Nature 399, 271-275 (1999). • 9. K. Iwai, et al., Proc. Natl. Acad. Sci. USA 96, 12436-12441 (1999). • 10. J. Lisztwan, G. Imbert, C. Wirbelauer, M. Gstaiger, W. Krek, Genes Dev 13, 1822-33 (1999). • 11. M. E. Cockman, et al., J Biol Chem (2000). • 12. M. Ohh, et al., Nat Cell Biol 2, 423-7. (2000). • 13. T. Kamura, et al., Proc Natl Acad Sci USA 97, 10430-5. (2000). • 14. K. Tanimoto, Y. Makino, T. Pereira, L. Poellinger, Embo J 19, 4298-309. (2000). • 15. M. A. Goldberg, S. P. Dunning, H. F. Bunn, Science 242, 1412-1415 (1988). • 16. G. L. Wang, G. L. Semenza, Blood 82, 3610-3615 (1993). • 17. G. L. Semenza, Cell 98, 281-284 (1999). • 18. Hypoxia (<0.1% oxygen) was obtained in a workstation with O2, CO2 and temperature control (Ruskinn Technologies, Leeds, UK). For hypoxic harvest, buffers were preincubated in the chamber overnight. RCC4-VHL.HA, labelling conditions and co-immunoprecipitation assays have been described previously (11); in the current study 12.5 μM MG132 was used for proteasomal inhibition. For standard harvest, the cells were removed from the chamber after hypoxic exposure, prior to cell lysis. Co-immunoprecipitation assays on all lysates were performed at 4° C. under ambient oxygen conditions. […] When programming in hypoxia, reaction mix was preincubated in the workstation for 10 minutes before addition of the DNA template. […]

T1 sequence (P40337 whole entry): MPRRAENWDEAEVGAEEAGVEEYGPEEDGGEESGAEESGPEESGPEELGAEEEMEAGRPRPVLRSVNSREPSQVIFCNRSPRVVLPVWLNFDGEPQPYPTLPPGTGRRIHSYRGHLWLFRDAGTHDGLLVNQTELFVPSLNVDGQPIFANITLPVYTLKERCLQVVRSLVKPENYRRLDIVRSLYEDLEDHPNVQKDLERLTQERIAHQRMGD

| Substance | blocking of HIF-1α/pVHL interaction by polypeptide not exposed to cell extract (untreated polypeptide) | blocking of HIF-1α/pVHL interaction by polypeptide after exposure to cell extract (cell extract supplemented with Fe(II)) |
| --- | --- | --- |
| 19:Pro564Hyp: polypeptide (HIF-1α residues 556-574) containing a trans-4-hydroxy-S-proline residue at position 564 | highly effective at inhibiting the HIF-1α/pVHL interaction; also recorded: blocked the HIF-1α/pVHL interaction without the need for exposure to cell extract | – |
| 19:WT: polypeptide comprising HIF-1α residues 556 to 574 | – | blocking activity |
